Test results reported in article PMC3415446.

Assays:
[1] = biological target: NDV Ulster HN NA domain (residues 124-616), containing the C-terminal extension (Newcastle disease virus (NDV), strain Ulster); test: sucrose density gradient sedimentation
[2] = biological target: NDV Ulster HN NA domain (residues 124-616), containing the C-terminal extension (Newcastle disease virus (NDV), strain Ulster); test: negative-stain electron microscopy
[3] = biological target: NDV Ulster HN NA domain (residues 124-616), containing the C-terminal extension (Newcastle disease virus (NDV), strain Ulster); test: SEC
[4] = biological target: NDV Ulster HN NA domain (residues 124-616), containing the C-terminal extension (Newcastle disease virus (NDV), strain Ulster); test: SDS-PAGE under non-reducing conditions
[5] = biological target: NDV Ulster HN ectodomain (residues 49-616) (Newcastle disease virus (NDV), strain Ulster); test: not stated; ectodomain in solution; method not given
[6] = biological target: NDV Ulster HN ectodomain (residues 49-616) (Newcastle disease virus (NDV), strain Ulster); test: SDS-PAGE under non-reducing conditions

Measured: stoichiometry N

NDV Ulster HN NA domain (residues 124-616), containing the C-terminal extension (domain or fragment)
2: [1] | [2] | [3] | [4]

NDV Ulster HN ectodomain (residues 49-616) (domain or fragment)
2: [5] | [6]
